Holding throughout (assay): ITC
For orientation: Isothermal titration calorimetry measures the heat released or taken up as one component is titrated into another.

One assay deals with T1, TAF3 PHD finger.
T1 chain: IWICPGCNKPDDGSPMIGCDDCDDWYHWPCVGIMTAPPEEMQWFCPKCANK

The target of another assay is T2, BPTF PHD finger.
T2 chain: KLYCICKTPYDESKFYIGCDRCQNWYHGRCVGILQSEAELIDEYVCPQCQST

The target in another assay is T3, JARID1A PHD finger.
T3 chain: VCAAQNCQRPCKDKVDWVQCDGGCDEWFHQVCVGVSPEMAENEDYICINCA

In another assay the target is T4, JMJDA Tudor domain.
T4 chain: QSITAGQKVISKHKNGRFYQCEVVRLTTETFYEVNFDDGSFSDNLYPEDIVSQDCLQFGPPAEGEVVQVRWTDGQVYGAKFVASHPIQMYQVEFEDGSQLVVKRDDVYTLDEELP

Where no end group is shown, it is not given here.

One may read the Kd as the equilibrium constant for the complex coming apart. Low values mean tighter binding, high ones weaker binding.

B1: H3Q5ser histone H3 tail peptide (ITC) (peptide)
chain: ARTKQTARKSTGGKA
modifications: serotonylated glutamine at 5; C-terminal amide (general statement of the peptide synthesis)
In the case of B1, in the assay with TAF3 PHD finger, the affinity, expressed as Kd, was 3790 nM.

For the molecule ARTK(Me3)QTARKSTGGKA-NH2 [H3K4me3 histone H3 tail peptide (ITC)], the Kd with BPTF PHD finger worked out at 1810 nM; with JARID1A PHD finger, 1680 nM. On to ARTKQTARKSTGGKA-NH2 [unmodified histone H3 N-terminal tail peptide (ITC)], for which, in the assay with TAF3 PHD finger, the Kd turned out to be 21500 nM.

B2: H3Q5his histone H3 tail peptide (ITC and crystal) (peptide)
chain: ARTKQTARKSTGGKA
modifications: histaminylated glutamine at 5; C-terminal amide (general statement of the peptide synthesis)
Take B2: in the assay with TAF3 PHD finger, the Kd worked out at 7940 nM.

B3: H3K4me3Q5ser histone H3 tail peptide (ITC) (peptide)
chain: ARTKQTARKSTGGKA
modifications: trimethyl-lysine at 4; serotonylated glutamine at 5; C-terminal amide (general statement of the peptide synthesis)
In the case of B3, the Kd in the assay with BPTF PHD finger turned out to be 2720 nM; in the assay with JMJDA Tudor domain it was 3610 nM; with JARID1A PHD finger it was 2900 nM.

B4: H3K4me3Q5his histone H3 tail peptide (ITC) (peptide)
chain: ARTKQTARKSTGGKA
modifications: trimethyl-lysine at 4; histaminylated glutamine at 5; C-terminal amide (general statement of the peptide synthesis)
B4: the values for the Kd with BPTF PHD finger, with JMJDA Tudor domain and in the assay with JARID1A PHD finger were 1940 nM, 2300 nM and 1850 nM, respectively.
